# Measured values published in patent US20230348609A1 (WUXI BIOLOGICS SHANGHAI, published 2023).
# T1: recombinant human OX40 extracellular domain (human, UniProt P43489 29-214)
# T1 construct: extracellular domain
# T1 sequence (looked up): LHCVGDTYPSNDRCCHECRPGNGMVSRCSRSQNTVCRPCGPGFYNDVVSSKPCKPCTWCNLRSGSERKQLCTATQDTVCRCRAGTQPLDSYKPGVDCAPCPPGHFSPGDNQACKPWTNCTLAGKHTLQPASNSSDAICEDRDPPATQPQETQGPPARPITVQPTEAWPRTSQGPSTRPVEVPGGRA
# T2: Human GITR protein (His tag, ECD) (human, UniProt Q9Y5U5 26-162)
# T2 construct: extracellular domain; Bought protein
# T2 sequence (looked up): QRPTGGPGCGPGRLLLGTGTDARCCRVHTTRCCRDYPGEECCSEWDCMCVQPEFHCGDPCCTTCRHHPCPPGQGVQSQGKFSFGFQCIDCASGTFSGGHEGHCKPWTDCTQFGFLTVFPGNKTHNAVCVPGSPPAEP
# T3: recombinant human BCMA extracellular domain (human, UniProt Q02223 1-54)
# T3 construct: extracellular domain
# T3 sequence (looked up): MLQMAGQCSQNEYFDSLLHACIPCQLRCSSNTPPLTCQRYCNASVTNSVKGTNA
# T4: CD40 protein, rat, recombinant (His tag) (rat, UniProt A6JXD6 20-193)
# T4 construct: Bought protein; also called rat CD40; not shown: C-terminal His tag of the vendor's construct (SinoBiological 80151-R08H)
# T4 sequence: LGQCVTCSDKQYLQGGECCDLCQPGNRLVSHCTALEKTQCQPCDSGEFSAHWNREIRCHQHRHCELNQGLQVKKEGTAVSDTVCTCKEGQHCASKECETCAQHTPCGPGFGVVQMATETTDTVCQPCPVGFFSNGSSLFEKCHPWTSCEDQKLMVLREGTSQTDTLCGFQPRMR
# T5: CD40 protein, canine, recombinant (His tag) (canine, UniProt Q7YRL5 21-194)
# T5 construct: extracellular domain; Bought protein; also called canine CD40
# T5 sequence (looked up): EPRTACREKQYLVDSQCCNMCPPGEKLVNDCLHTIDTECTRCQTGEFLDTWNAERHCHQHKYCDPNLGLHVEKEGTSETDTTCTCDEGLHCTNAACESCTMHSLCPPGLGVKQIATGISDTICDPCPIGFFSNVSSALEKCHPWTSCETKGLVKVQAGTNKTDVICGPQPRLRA
# B1: W3525-1.9.16-P5-uIgG2K (antibody, V domains shown)
# VH: QVQLVQSGAEVKKPGSSVKVSCKASGDTVSSYGISWVRQAPGQGLEWMGGSIPFFGTPNYAQKFQGRVTFTADESTSTAYMELSSLRSEDTAVYYCARARRGYSYGHYHYYAMDVWGQGTTVTVAS
# VL: DTVMTQSPLSLPVTPGEPASISCRSGQSLLHNNAYNYLDWYLQKPGQSPQLLIYLGSNRASGVPDRFSGSGSGTDFTLKISRVEAEDVGVYYCMQALQTPLSFGGGTKVEIKR
# notes: Fully human IgG2 kappa with wild-type human IgG2 constant region; also called W3525 antibody; final lead antibody
# Tests used:
# [1] = biological target: T6, human CD40, full-length, on cells (human, UniProt P25942 21-277); assay: cell-based or functional assay
# T6 sequence (P25942 21-277): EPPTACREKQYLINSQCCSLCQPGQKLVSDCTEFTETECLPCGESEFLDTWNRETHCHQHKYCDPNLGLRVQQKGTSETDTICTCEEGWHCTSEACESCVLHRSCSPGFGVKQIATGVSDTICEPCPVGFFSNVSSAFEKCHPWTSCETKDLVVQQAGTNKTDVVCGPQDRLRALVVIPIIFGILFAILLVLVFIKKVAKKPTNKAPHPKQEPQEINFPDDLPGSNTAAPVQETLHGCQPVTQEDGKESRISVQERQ
# [2] = biological target: T6, human CD40, full-length, on cells; assay: cell-based or functional assay; remark: listed apart in the source
# [3] = biological target: T6, human CD40, full-length, on cells; assay: cell-based or functional assay; remark: listed apart in the source
# [4] = biological target: T6, human CD40, full-length, on cells; assay: FACS on A431 cells (human CD40 binding assay); A431 cells
# Protocol: (§1) W352-CHOK1.hPro1.A7 (1×10⁵ cells/well), Raji (1×10⁵ cells/well) or A431 (5×10⁴ cells/well) cells were incubated with various concentrations of W3525 antibody (3-fold serially diluted from 100 nM to 0.0051 nM, or 5-fold serially diluted from 100 nM to 0.00128 nM) at 4° C. for 1 hour. After washing with 1×PBS/1% BSA, the secondary antibody, Alex647-labeled goat anti-human IgG (1:250) or R-PE-labeled goat anti-human IgG (1:150) was added and incubated with cells at 4° C. in dark for 1 hour. Anti-human CD40 antibodies BMK4 and BMK5 were used as positive controls. Human IgG1 and IgG2 isotype antibodies were used as isotype controls. The cells were then washed and re-suspended in 1×PBS/1% BSA. MFI of the cells was measured by a flow cytometer and analyzed by FlowJo. GraphPad Prism was used to plot the log of antibody concentration (x-axis) versus MFI (y-axis). The EC50 values were determined using four-parameter dose-response curve model.
# (§2) The binding result of W3525 on W352-CHOK1.hPro1.A7, Raji and A431 cells are shown in FIGS. 1, 2 and 3, respectively.
# [5] = biological target: T6, human CD40, full-length, on cells; assay: FACS on Raji cells (human CD40 binding assay); Raji cells
# Protocol: as §1, §2
# [6] = biological target: T1, recombinant human OX40 extracellular …; assay: ELISA, plate coated with 1 ug/mL recombinant extracellular domain
# Protocol: (§3) Plate was pre-coated with 1 μg/mL of recombinant human CD40, OX40, 4-1BB, GITR or BCMA extracellular domain in 100 μL coating buffer (0.02 M Na₂CO₃ and 0.18 M NaHCO₃, pH9.2) per well at 4° C. overnight. Next day, the plate was washed with 1×PBST for one time. After 1-hour blocking using 200 μL of 1×PBS/2% BSA, the plate was washed using 1×PBST for 3 times. W3525 was added to the plate at a concentration of 66.7 nM and incubated at ambient temperature for 1 hour. Anti-CD40 antibodies BMK4 and BMK5, anti-OX40 antibody MEDI0562, anti-4-1BB antibody BMS-663513, anti-GITR antibody INCAGN01876 and anti-BCMA antibody EM801 were used as positive controls, respectively. Human IgG2 isotype antibody was used as isotype control. After incubation, the plate was washed using 1×PBST for 3 times. HRP-labeled goat anti-human IgG antibody diluted in 1×PBS/2% BSA at a ratio of 1:5000 was added and incubated for 1 hour. After washing with 1×PBST for 6 times, the color was developed by dispensing 100 μL of TMB substrate, and then reaction was stopped by adding 100 μL of 2M HCl. Absorbance was read at 450 nm and 540 nm using a microplate spectrophotometer. GraphPad Prism was used to plot the antibody concentration (x-axis) versus absorbance (y-axis). All samples were tested in duplicate.
# [7] = biological target: T7, recombinant human 4-1BB extracellular domain (human, UniProt Q07011 24-186); assay: as above
# T7 construct: extracellular domain
# T7 sequence (Q07011 24-186): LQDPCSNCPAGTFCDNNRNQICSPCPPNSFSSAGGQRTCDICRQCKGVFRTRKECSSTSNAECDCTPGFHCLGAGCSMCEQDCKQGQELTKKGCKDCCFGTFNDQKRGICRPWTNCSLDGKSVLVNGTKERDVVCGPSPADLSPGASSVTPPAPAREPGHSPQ
# Protocol: as §3
# [8] = biological target: T2, Human GITR protein (His tag, ECD); assay: as above
# Protocol: as §3
# [9] = biological target: T3, recombinant human BCMA extracellular …; assay: as above
# Protocol: as §3
# [10] = biological target: T4, CD40 protein, rat, recombinant (His tag); assay: ELISA, plate coated with 1 ug/mL recombinant CD40 extracellular domain
# Protocol: as §3
# (§4) Plate was pre-coated with 1 μg/mL of recombinant human, cynomolgus monkey, mouse, canine or rat CD40 extracellular domain in 100 μL coating buffer per well at 4° C. overnight. Then the ELISA procedure was performed as described above. Anti-human CD40 antibodies BMK4 and BMK5 were used as positive controls. Human IgG1 and IgG2 isotype antibodies were used as isotype controls.
# [11] = biological target: T5, CD40 protein, canine, recombinant (His …); assay: as above
# Protocol: as §3, §4
# W352-mPro1.ECD.His = biological target: T8, W352-mPro1.ECD.His (mouse, UniProt P27512 20-193); assay: as above
# T8 construct: range 20-193; The ELISA of 3.5 says only 'recombinant mouse CD40 extracellular domain'; also called Mouse CD40 extracellular domain, His tag; mouse CD40; not shown: His tag
# T8 sequence (P27512 20-193 limits assumed): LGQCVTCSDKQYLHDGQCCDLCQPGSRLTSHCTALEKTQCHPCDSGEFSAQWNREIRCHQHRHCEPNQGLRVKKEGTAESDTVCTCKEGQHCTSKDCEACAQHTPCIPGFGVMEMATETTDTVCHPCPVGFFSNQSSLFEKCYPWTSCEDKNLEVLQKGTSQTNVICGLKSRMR
# Protocol: as §3, §4
# [12] = biological target: T9, cynomolgus monkey CD40 on transiently transfected 293F cells (cynomolgus monkey, UniProt G7PG38 21-278); assay: FACS on 293F cells transiently transfected with cynomolgus monkey CD40
# T9 construct: whole, on cells; also called cell surface cynomolgus monkey CD40
# Protocol: Cynomolgus monkey CD40 transiently transfected 293F cells (2×10⁵ cells/well) were incubated with various concentrations of W3525 (3-fold serially diluted from 200 nM to 0.0102 nM) at 4° C. for 1 hour. After washing with 1×PBS/1% BSA, a secondary antibody, R-PE-labeled goat anti-human IgG (1:150) was added and incubated with cells at 4° C. in dark for 1 hour. The cells were washed and suspended and the MFI and EC50 values were determined as described above.
# [13] = biological target: T6, human CD40, full-length, on cells; assay: FACS competition on W352-CHOK1.hPro1.A7 cells; competitor W352-hpro1L1.ECD.mFc at 5 ug/mL
# Protocol: W352-CHOK1.hPro1.A7 cells were plated in a 96-well plate at a density of 1×10⁵ cells/well. A constant concentration of W352-hPro1L1.EECD.mFc (5 μg/mL) diluted in 1×PBS/1% BSA was added to the cells, followed by serially diluted antibodies (3-fold serially diluted from 60 nM to 0.0274 nM in 1×PBS/1% BSA), and mixed well. The plate was incubated at 4° C. for 1 hour.
# W352-cynoPro1.ECD.His = biological target: T10, W352-cynoPro1.ECD.His (cynomolgus monkey, UniProt G7PG38 21-193); assay: SPR, Biacore T200; antibody captured by goat anti-human Fc; analyte W352-cynoPro1.ECD.His
# T10 construct: range 21-193; Also used for the 'recombinant cynomolgus monkey CD40 extracellular domain' coated in the ELISA of 3.5; also called Cynomolgus monkey CD40 extracellular domain, His tag; W352-cPro1.ECD.His; not shown: His tag
# Protocol: The affinity of W3525 to cynomolgus monkey CD40 was determined using Biacore T200. The process of immobilization was the same as that of Biacore 8K. The antibody W3525 was diluted to 33.35 nM in running buffer (1×HBS-EP+) and was captured onto Fc2 at a flow rate of 10 μL/min for 60 s. Seven concentrations (0, 1.56, 3.13, 6.25, 12.5, 25 and 50 nM) of analyte W352-cynoPro1.ECD.His were injected orderly to Fc1 and Fc2 at a flow rate of 30 μL/min for an association phase of 240 s, followed by 300 s dissociation. After each cycle, glycine solution (10 mM, pH 1.5) as regeneration buffer was injected to regenerate the chip.
# Molecular weight of 29 kDa was used to calculate the molar concentration of W352-cPro1.ECD.His.
# [14] = biological target: T6, human CD40, full-length, on cells; assay: FACS on W352-CHOK1.hPro1.A7 cells (CHO-K1 with full-length human CD40); W352-CHOK1.hPro1.A7 cells
# Protocol: as §1, §2
# W352-hPro1.ECD.His = biological target: T11, W352-hPro1.ECD.His (human, UniProt P25942 21-193); assay: SPR, Biacore 8K; antibody captured by goat anti-human Fc; analyte W352-hPro1.ECD.His; 1:1 model
# T11 construct: range 21-193; Also used for the 'recombinant human CD40 extracellular domain' coated in the ELISAs of 3.4 and 3.5; also called Human CD40 extracellular domain, His tag; human CD40 free protein; not shown: His tag
# T11 sequence (P25942 21-193 limits assumed): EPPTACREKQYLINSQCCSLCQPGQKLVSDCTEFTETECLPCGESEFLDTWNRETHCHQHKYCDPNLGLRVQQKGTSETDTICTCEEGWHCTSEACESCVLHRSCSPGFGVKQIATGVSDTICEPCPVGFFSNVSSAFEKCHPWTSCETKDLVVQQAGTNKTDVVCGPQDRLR
# Protocol: The affinity of W3525 to human CD40 was determined using Biacore 8K. The activator was prepared by mixing 400 mM EDC and 100 mM NHS immediately prior to injection. The CMS sensor chip was activated for 420 s with the activator at a flow rate of 10 μL/min. Goat anti-human Fc IgG (30 μg/mL in 10 mM NaAc, pH 4.5) was then injected to the channels for 420 s at a flow rate of 10 μL/min The chip was deactivated by 1 M ethanolamine-HCl at a flow rate of 10 μL/min for 420 s. After immobilization, the antibody W3525 was diluted to 66.7 nM in running buffer (1×HBS-EP+) and was captured onto the channel Fc4 at a flow rate of 10 μL/min for 30 s. Seven concentrations (0, 1.5625, 3.125, 6.25, 12.5, 25 and 50 nM) of analyte W352-hPro1.ECD.His were injected orderly to the channels at a flow rate of 30 μL/min for an association phase of 90 s, followed by 300 s dissociation. Glycine solution (10 mM, pH 1.5) as regeneration buffer was injected following dissociation phase to regenerate the chip.
# Molecular weight of 29 kDa was used to calculate the molar concentration of W352-hPro1.ECD.His.
binder,measurement,setting,value
B1,"EC50, NFκB reporter assay, W352-Ramos.NFκBRE.luc",[1],1.4 nM
same,"EC50, NFκB reporter assay, W352-U937.hPro1.NFκBRE.luc",[1],1.3 nM
same,"EC50, B cell proliferation",[2],0.16 nM
same,"EC50, CD54 expression, DC activation assay",[3],0.35 nM
same,"EC50, CD80 expression, DC activation assay",[3],0.37 nM
same,"EC50, CD83 expression, DC activation assay",[3],0.16 nM
same,"EC50, CD86 expression, DC activation assay",[3],0.56 nM
same,"EC50, IL-12p40 release, DC activation assay",[3],0.47 nM
same,EC50,[4],0.16 nM
same,EC50,[5],0.36 nM
same,binding result,[6],no binding (tested: 66.7 nM)
same,binding result,[7],no binding (tested: 66.7 nM)
same,binding result,[8],no binding (tested: 66.7 nM)
same,binding result,[9],no binding (tested: 66.7 nM)
same,binding result,[10],no binding
same,binding result,[11],no binding
same,binding result,W352-mPro1.ECD.His,no binding
same,EC50,[12],2.4 nM
same,IC50,[13],1.4 nM
same,Kd,W352-cynoPro1.ECD.His,8.47 nM
same,koff,W352-cynoPro1.ECD.His,0.00377 s⁻¹
same,kon,W352-cynoPro1.ECD.His,444000 M⁻¹ s⁻¹
same,EC50,[14],1.1 nM
same,Kd,W352-hPro1.ECD.His,7.12 nM
same,koff,W352-hPro1.ECD.His,0.00405 s⁻¹
same,kon,W352-hPro1.ECD.His,569000 M⁻¹ s⁻¹
